Reference: PMC3777832

Biological target: xenopus Lgr4 ectodomain (residues 24-455) (xenopus)
Assay: SEC + other: dynamic light scattering

stoichiometry N: 2
Substance: xenopus Lgr4 ectodomain (residues 24-455) (domain or fragment)
